Test results reported in article PMC5051544.

Target: T1, Bacteriorhodopsin, P02945
T1 chain: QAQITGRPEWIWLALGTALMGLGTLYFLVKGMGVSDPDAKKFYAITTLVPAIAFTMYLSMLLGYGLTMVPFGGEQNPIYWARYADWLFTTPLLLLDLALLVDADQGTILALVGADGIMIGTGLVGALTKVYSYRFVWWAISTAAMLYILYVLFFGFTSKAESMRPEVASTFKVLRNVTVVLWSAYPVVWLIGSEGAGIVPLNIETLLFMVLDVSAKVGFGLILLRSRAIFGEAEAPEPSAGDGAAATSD
Test: SEC
Details: remark: other sources report otherwise

- stoichiometry N: 3 per nanodisc
B1: Bacteriorhodopsin, P02945 14-262 (natural protein)
chain: T1 chain
